According to article PMC6430473:

Biological target: T1, Clp (Xanthomonas campestris pv. campestris 8004) (UniProt Q4UZF6)
T1 sequence: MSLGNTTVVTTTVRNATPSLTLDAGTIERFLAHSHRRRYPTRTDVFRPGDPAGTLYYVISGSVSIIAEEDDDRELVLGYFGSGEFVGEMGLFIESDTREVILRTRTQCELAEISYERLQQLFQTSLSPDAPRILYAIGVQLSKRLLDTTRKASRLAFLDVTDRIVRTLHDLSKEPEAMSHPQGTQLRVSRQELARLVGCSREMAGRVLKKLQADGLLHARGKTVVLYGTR
Test: EMSA

Sequence: CATGGTGATCTCCCTAGAGAACCGGGCTCGACACCCGAGCGCGGTAAGGCGGGCATCTTGGTCTGTGCGCGCGTCGCGTGGTGTGATCGTCCCCACAGAAAAC (double strand) [P-56/+47]
- binding: binds

Sequence: AGCTGAAGGCCGGCCCGGCGGCCAGTGCGAGGGCGGTGGCCAAAGCGAGCGTGCTTGCGGTCCTGAATATGGACATGGTGATCTCCCTAGAGAACCGGGCTCGACACCCGAGCGCGGTAAGGCGGGCATCTTGGTCTGTGCGCGCGTCGCGTGGTG (double strand) [P-36/+120 (text: P-36/+100)]
- binding: no binding
